# Reference: IntAct's records for PubMed 31515488
# B1: Transcription factor 12 (Homo sapiens), Q99081 (parent)
# chain: MNPQQQRMAAIGTDKELSDLLDFSAMFSPPVNSGKTRPTTLGSSQFSGSGIDERGGTTSWGTSGQPSPSYDSSRGFTDSPHYSDHLNDSRLGAHEGLSPTPFMNSNLMGKTSERGSFSLYSRDTGLPGCQSSLLRQDLGLGSPAQLSSSGKPGTAYYSFSATSSRRRPLHDSAALDPLQAKKVRKVPPGLPSSVYAPSPNSDDFNRESPSYPSPKPPTSMFASTFFMQDGTHNSSDLWSSSNGMSQPGFGGILGTSTSHMSQSSSYGNLHSHDRLSYPPHSVSPTDINTSLPPMSSFHRGSTSSSPYVAASHTPPINGSDSILGTRGNAAGSSQTGDALGKALASIYSPDHTSSSFPSNPSTPVGSPSPLTGTSQWPRPGGQAPSSPSYENSLHSLQSRMEDRLDRLDDAIHVLRNHAVGPSTSLPAGHSDIHSLLGPSHNAPIGSLNSNYGGSSLVASSRSASMVGTHREDSVSLNGNHSVLSSTVTTSSTDLNHKTQENYRGGLQSQSGTVVTTEIKTENKEKDENLHEPPSSDDMKSDDESSQKDIKVSSRGRTSSTNEDEDLNPEQKIEREKERRMANNARERLRVRDINEAFKELGRMCQLHLKSEKPQTKLLILHQAVAVILSLEQQVRERNLNPKAACLKRREEEKVSAVSAEPPTTLPGTHPGLSETTNPMGHM
# B2: Caspase-2 (Homo sapiens), P42575 (parent)
# chain: MAAPSAGSWSTFQHKELMAADRGRRILGVCGMHPHHQETLKKNRVVLAKQLLLSELLEHLLEKDIITLEMRELIQAKVGSFSQNVELLNLLPKRGPQAFDAFCEALRETKQGHLEDMLLTTLSGLQHVLPPLSCDYDLSLPFPVCESCPLYKKLRLSTDTVEHSLDNKDGPVCLQVKPCTPEFYQTHFQLAYRLQSRPRGLALVLSNVHFTGEKELEFRSGGDVDHSTLVTLFKLLGYDVHVLCDQTAQEMQEKLQNFAQLPAHRVTDSCIVALLSHGVEGAIYGVDGKLLQLQEVFQLFDNANCPSLQNKPKMFFIQACRGDETDRGVDQQDGKNHAGSPGCEESDAGKEKLPKMRLPTRSDMICGYACLKGTAAMRNTKRGSWYIEALAQVFSERACDMHVADMLVKVNALIKDREGYAPGTEFHRCKEMSEYCSTLCRHLYLFPGHPPT
# B3: Nuclear autoantigen Sp-100 (Homo sapiens), P23497 (parent)
# chain: MAGGGGDLSTRRLNECISPVANEMNHLPAHSHDLQRMFTEDQGVDDRLLYDIVFKHFKRNKVEISNAIKKTFPFLEGLRDRDLITNKMFEDSQDSCRNLVPVQRVVYNVLSELEKTFNLPVLEALFSDVNMQEYPDLIHIYKGFENVIHDKLPLQESEEEEREERSGLQLSLEQGTGENSFRSLTWPPSGSPSHAGTTPPENGLSEHPCETEQINAKRKDTTSDKDDSLGSQQTNEQCAQKAEPTESCEQIAVQVNNGDAGREMPCPLPCDEESPEAELHNHGIQINSCSVRLVDIKKEKPFSNSKVECQAQARTHHNQASDIIVISSEDSEGSTDVDEPLEVFISAPRSEPVINNDNPLESNDEKEGQEATCSRPQIVPEPMDFRKLSTFRESFKKRVIGQDHDFSESSEEEAPAEASSGALRSKHGEKAPMTSRSTSTWRIPSRKRRFSSSDFSDLSNGEELQETCSSSLRRGSGSQPQEPENKKCSCVMCFPKGVPRSQEARTESSQASDMMDTMDVENNSTLEKHSGKRRKKRRHRSKVNGLQRGRKKDRPRKHLTLNNKVQKKRWQQRGRKANTRPLKRRRKRGPRIPKDENINFKQSELPVTCGEVKGTLYKERFKQGTSKKCIQSEDKKWFTPREFEIEGDRGASKNWKLSIRCGGYTLKVLMENKFLPEPPSTRKKRILESHNNTLVDPCEEHKKKNPDASVKFSEFLKKCSETWKTIFAKEKGKFEDMAKADKAHYEREMKTYIPPKGEKKKKFKDPNAPKRPPLAFFLFCSEYRPKIKGEHPGLSIDDVVKKLAGMWNNTAAADKQFYEKKAAKLKEKYKKDIAAYRAKGKPNSAKKRVVKAEKSKKKKEEEEDEEDEQEEENEEDDDK
# partner: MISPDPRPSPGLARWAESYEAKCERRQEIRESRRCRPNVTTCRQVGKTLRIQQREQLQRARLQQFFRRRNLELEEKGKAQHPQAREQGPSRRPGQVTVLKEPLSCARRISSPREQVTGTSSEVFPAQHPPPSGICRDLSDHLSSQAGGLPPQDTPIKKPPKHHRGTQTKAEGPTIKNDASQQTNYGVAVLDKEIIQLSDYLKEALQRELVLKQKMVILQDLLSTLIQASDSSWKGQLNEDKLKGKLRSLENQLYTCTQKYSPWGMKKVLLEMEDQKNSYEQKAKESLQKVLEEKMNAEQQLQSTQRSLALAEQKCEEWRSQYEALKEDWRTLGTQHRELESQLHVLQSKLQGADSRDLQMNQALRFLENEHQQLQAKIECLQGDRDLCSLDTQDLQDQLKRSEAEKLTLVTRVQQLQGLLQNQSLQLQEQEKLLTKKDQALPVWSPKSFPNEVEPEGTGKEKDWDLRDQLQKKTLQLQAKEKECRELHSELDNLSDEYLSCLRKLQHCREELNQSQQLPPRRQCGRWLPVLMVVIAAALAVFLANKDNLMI
# B4: Myogenin (Homo sapiens), P15173 (parent)
# chain: MELYETSPYFYQEPRFYDGENYLPVHLQGFEPPGYERTELTLSPEAPGPLEDKGLGTPEHCPGQCLPWACKVCKRKSVSVDRRRAATLREKRRLKKVNEAFEALKRSTLLNPNQRLPKVEILRSAIQYIERLQALLSSLNQEERDLRYRGGGGPQPGVPSECSSHSASCSPEWGSALEFSANPGDHLLTADPTDAHNLHSLTSIVDSITVEDVSVAFPDETMPN
# B5: Ribonuclease P protein subunit p25-like protein (Homo sapiens), Q8N5L8 (parent)
# chain: MEHYRKAGSVELPAPSPMPQLPPDTLEMRVRDGSKIRNLLGLALGRLEGGSARHVVFSGSGRAAGKAVSCAEIVKRRVPGLHQLTKLRFLQTEDSWVPASPDTGLDPLTVRRHVPAVWVLLSRDPLDPNECGYQPPGAPPGLGSMPSSSCGPRSRRRARDTRS
# partner: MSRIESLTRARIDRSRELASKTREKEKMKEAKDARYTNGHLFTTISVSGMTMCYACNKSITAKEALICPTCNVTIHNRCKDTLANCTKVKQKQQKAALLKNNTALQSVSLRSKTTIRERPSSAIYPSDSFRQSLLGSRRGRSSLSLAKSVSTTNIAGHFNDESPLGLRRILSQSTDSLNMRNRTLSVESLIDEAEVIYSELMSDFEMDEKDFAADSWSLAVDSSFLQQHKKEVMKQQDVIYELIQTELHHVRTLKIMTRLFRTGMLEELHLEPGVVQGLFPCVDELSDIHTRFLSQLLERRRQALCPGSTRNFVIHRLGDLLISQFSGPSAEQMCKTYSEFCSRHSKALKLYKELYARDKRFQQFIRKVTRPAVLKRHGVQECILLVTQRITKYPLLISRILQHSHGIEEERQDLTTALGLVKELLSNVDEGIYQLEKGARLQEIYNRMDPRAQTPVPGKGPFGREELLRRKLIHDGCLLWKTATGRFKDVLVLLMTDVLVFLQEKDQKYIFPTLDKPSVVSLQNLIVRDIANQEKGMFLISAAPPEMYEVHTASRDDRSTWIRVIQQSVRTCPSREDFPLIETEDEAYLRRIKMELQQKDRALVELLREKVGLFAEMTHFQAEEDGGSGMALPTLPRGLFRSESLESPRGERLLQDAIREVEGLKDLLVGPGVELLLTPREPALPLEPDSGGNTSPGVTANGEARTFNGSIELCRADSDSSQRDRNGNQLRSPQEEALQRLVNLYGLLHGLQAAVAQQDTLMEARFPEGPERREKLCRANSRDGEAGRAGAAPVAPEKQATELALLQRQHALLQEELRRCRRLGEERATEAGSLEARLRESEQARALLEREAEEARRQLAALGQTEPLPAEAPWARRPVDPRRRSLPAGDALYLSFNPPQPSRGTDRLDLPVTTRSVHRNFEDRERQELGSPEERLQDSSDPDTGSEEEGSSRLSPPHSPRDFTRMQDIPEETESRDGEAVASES
# Variants of: B1
# Settings: with psa1_human PSMA1, P25786
# Chain of psa1_human PSMA1, P25786 (P25786 whole entry): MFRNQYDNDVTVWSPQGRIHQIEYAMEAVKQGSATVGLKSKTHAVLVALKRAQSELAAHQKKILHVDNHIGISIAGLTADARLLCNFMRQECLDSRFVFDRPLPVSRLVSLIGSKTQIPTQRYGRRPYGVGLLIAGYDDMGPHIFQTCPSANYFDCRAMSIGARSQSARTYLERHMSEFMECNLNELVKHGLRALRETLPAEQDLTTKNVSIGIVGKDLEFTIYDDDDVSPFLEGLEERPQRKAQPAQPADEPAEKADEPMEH
row,Variant,effect of a mutation on the interaction
1,N479S,with no effect
2,L483R,with no effect
3,A458V,with no effect
4,G300S,with no effect
5,D565V,with no effect

# Variants of: B1
# Settings: with cdn2c_human CDKN2C
row,Variant,effect of a mutation on the interaction
1,N479S,with no effect
2,L483R,with no effect
3,A458V,with no effect
4,G300S,with no effect
5,D565V,with no effect

# Variants of: B2
# Settings: with cradd_human CRADD
row,Variant,effect of a mutation on the interaction
1,R265G,with no effect
2,G349S,with no effect
3,R155H,with no effect
4,V29E,with no effect
5,E388K,with no effect

# Variants of: B3
# Settings: with TRAF3IP3, Q9Y228
row,Variant,effect of a mutation on the interaction
1,M433V,with no effect

# Variants of: B4
# Settings: with fril_human FTL
row,Variant,effect of a mutation on the interaction
1,P49H,with no effect
2,R147C,with no effect

# Variants of: B4
# Settings: with if4e2_human EIF4E2, O60573
# Chain of if4e2_human EIF4E2, O60573 (O60573 whole entry): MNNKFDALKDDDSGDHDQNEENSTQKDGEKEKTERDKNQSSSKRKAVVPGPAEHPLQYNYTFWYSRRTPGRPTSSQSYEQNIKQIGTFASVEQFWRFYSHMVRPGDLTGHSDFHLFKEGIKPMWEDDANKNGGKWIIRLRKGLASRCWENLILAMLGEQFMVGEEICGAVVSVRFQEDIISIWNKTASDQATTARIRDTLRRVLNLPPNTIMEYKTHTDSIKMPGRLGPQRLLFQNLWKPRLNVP
row,Variant,effect of a mutation on the interaction
1,P49H,with no effect
2,A181T,disrupting interaction strength

# Variants of: B4
# Settings: with mlh1_human MLH1, P40692
# Chain of mlh1_human MLH1, P40692 (P40692 whole entry): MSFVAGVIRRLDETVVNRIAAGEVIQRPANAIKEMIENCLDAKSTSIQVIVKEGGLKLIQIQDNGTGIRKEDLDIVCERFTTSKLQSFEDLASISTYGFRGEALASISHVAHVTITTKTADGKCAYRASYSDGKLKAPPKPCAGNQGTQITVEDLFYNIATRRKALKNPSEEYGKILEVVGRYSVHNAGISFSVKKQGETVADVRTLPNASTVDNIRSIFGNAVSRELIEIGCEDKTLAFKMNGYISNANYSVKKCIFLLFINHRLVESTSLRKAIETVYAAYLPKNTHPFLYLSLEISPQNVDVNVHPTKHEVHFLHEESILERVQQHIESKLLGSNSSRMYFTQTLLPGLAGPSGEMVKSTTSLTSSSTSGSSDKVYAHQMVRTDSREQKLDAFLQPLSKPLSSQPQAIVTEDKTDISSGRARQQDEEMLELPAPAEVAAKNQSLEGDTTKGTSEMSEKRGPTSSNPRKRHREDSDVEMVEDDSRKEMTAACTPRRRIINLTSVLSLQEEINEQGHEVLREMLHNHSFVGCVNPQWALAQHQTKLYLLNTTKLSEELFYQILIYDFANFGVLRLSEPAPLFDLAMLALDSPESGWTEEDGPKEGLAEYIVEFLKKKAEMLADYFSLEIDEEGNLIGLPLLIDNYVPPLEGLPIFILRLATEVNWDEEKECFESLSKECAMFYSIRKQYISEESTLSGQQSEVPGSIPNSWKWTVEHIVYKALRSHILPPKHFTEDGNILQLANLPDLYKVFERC
row,Variant,effect of a mutation on the interaction
1,P49H,with no effect
2,A181T,disrupting interaction strength

# Variants of: B4
# Settings: with cc28a_human CCDC28A
row,Variant,effect of a mutation on the interaction
1,A181T,disrupting interaction strength

# Variants of: B5
# Settings: with arhg2_human ARHGEF2, Q92974
row,Variant,effect of a mutation on the interaction
1,R155Q,with no effect
